Here are results for 8 molecules from paper PMC7195389, “Inter-domain dynamics in the chaperone SurA and multi-site binding to its outer membrane protein clients” (Nature Communications, 2020).

Common to all, as to settings: both partners purified
The target of assay [1] is T1, SurA (E. coli periplasmic chaperone, wild type, mature sequence) (E. coli, UniProt P0ABZ6 21-428).
T1 construct: numbering is the gene numbering with the signal peptide; also called SurA WT; apo-SurA; source: E. coli BL21(DE3), purified (HisTrap, denatured on-column with 6 M Gdn-HCl, TEV cleavage, second HisTrap); not shown: His6, N-terminal, cleaved
T1 sequence (looked up): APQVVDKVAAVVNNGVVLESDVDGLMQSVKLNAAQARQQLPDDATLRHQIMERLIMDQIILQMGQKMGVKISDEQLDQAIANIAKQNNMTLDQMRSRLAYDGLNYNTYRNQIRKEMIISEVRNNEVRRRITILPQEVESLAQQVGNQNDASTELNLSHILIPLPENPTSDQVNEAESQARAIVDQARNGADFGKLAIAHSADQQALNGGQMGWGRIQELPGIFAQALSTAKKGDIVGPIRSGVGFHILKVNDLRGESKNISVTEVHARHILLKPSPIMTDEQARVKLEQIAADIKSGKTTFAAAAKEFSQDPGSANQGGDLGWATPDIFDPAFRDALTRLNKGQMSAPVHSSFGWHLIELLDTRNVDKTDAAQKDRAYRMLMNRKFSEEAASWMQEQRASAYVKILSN
Briefly: MST; 50 nM Alexa Fluor 488-labelled Cys-OmpX, SurA titrated 100 µM-3 nM, 0.24 M urea, 50 mM Tris-HCl pH 8.0; fitted to the Hill equation; apparent.

In assay [2] the target is T2, SurA Q85C-N193C labelled with Alexa Fluor 488 and Alexa Fluor 594 (E. coli, UniProt P0ABZ6 21-428, Q85C | N193C, Alexa Fluor 488 C5 maleimide and Alexa Fluor 594 C5 maleimide, stochastically, on Cys 85 and Cys 193).
T2 construct: gene numbering with the signal peptide; also called core-P1 SurA variant; SurA core-P1; source: E. coli BL21(DE3), purified as wild type with 10 mM DTT; labelled with Alexa Fluor maleimides, SEC; not shown: His6, N-terminal, cleaved
T2 sequence (looked up): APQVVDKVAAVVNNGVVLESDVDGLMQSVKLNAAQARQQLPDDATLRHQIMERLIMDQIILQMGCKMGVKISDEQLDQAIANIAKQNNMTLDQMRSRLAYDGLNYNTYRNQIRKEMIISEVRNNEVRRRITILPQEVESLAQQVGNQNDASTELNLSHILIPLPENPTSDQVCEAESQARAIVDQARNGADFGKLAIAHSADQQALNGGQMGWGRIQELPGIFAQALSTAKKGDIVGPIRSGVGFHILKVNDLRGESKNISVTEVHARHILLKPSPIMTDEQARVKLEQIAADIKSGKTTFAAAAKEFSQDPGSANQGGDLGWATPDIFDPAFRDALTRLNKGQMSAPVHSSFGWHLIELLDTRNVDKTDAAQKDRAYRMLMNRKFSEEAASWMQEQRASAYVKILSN
In words: FRET or BRET; intramolecular smFRET (ALEX) of ~50 pM doubly labelled SurA variant with 1.5 µM OmpX or OmpF, 50 mM Tris-HCl pH 8.0, 0.24 M urea, 25 °C; change of the inter-domain E_FRET distribution against apo-SurA. Background: Bioluminescence resonance energy transfer reports proximity on the nanometre scale.

The target in assay [3] is T1, SurA (E. coli periplasmic chaperone, …). Briefly: cross-linking; DSBU, 5 µM SurA, 5 µM OmpX, 0.24 M urea, 10 mM potassium phosphate pH 8.0, 45 min, room temperature; SDS-PAGE band, in-gel digestion, LC-MS/MS.
Assay [4] has the same target. Briefly: HDX-MS; differential HDX of 8 µM SurA without and with 8 µM OmpX or OmpF, 10 mM potassium phosphate pH 8.0, 0.24 M urea, 4 °C, 0.5-120 min.
The target is the same in assay [5]. Briefly: cross-linking; tag-transfer photo-cross-linking: 10 µM SurA, 5 µM MTS-diazirine-labelled OmpX Cys variant, 0.24 M urea, 10 mM potassium phosphate pH 8.0, UV LED 30 s; SDS-PAGE, LC-MS/MS.
In assay [6] the target is T2, SurA Q85C-N193C labelled with Alexa …. Briefly: FRET or BRET; intramolecular smFRET (ALEX) of ~50 pM doubly labelled SurA variant with 1.5 µM WEYIPNV, 50 mM Tris-HCl pH 8.0, 25 °C; change of the inter-domain E_FRET distribution against apo-SurA.
The target of assay [7] is T3, SurA Q85C-E301C labelled with Alexa Fluor 488 and Alexa Fluor 594 (E. coli, UniProt P0ABZ6 21-428, Q85C | E301C, Alexa Fluor 488 C5 maleimide and Alexa Fluor 594 C5 maleimide, stochastically, on Cys 85 and Cys 301).
T3 construct: gene numbering with the signal peptide; also called core-P2 SurA variant; SurA core-P2; source: E. coli BL21(DE3), purified as wild type with 10 mM DTT; labelled with Alexa Fluor maleimides, SEC; not shown: His6, N-terminal, cleaved
T3 sequence (looked up): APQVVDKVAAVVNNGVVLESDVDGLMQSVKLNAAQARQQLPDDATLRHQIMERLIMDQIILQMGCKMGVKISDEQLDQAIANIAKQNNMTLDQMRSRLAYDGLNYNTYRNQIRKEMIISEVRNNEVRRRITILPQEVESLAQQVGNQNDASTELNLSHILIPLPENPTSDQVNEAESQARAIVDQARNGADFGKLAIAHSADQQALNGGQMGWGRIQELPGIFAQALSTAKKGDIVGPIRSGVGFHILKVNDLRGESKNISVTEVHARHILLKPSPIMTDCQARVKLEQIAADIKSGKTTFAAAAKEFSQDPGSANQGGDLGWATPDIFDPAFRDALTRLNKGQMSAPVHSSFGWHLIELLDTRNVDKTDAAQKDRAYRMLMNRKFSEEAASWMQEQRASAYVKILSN
The assay is described as above.

Assay [8] concerns the target T1, SurA (E. coli periplasmic chaperone, …). In words: HDX-MS; differential HDX of 8 µM SurA without and with 110 µM WEYIPNV, 10 mM potassium phosphate pH 8.0, 4 °C, 0.5-120 min.

B1: Cys-OmpX labelled with Alexa Fluor 488 (natural protein, E. coli)
chain: MGSCATSTVTGGYAQSDAQGQMNKMGGFNLKYRYEEDNSPLGVIGSFTYTEKSRTASSGDYNKNQYYGITAGPAYRINDWASIYGVVGVGYGKFQTTEYPTYKHDTSDYGFSYGAGLQFNPMENVALDFSYEQSRIRSVDVGTWIAGVGYRF
modifications: Alexa Fluor 488 C5 maleimide on the added Cys
notes: N-terminal Met followed by the added residues Gly-Ser-Cys (named in words); also called labelled Cys-OmpX; source: E. coli BL21[DE3], inclusion bodies, purified; labelled with Alexa Fluor 488 C5 maleimide
Take B1: in assay [1], the Kd is around 800 nM.

B2: OmpX (E. coli outer membrane protein X, mature sequence, unfolded) (natural protein)
chain: MATSTVTGGYAQSDAQGQMNKMGGFNLKYRYEEDNSPLGVIGSFTYTEKSRTASSGDYNKNQYYGITAGPAYRINDWASIYGVVGVGYGKFQTTEYPTYKHDTSDYGFSYGAGLQFNPMENVALDFSYEQSRIRSVDVGTWIAGVGYRF
notes: N-terminal Met residue of the construct (named in words); Unfolded client in 0.24 M urea; source: E. coli BL21[DE3], inclusion bodies, purified (gel filtration in 6 M Gdn-HCl); urea-denatured and diluted into the assay
Take B2: the binding result in assay [2] and in assay [3] was “binds” in each case.

B3: OmpF (E. coli outer membrane protein F, mature sequence, unfolded) (natural protein, UniProt P02931 23-362, looked up)
chain: AEIYNKDGNKVDLYGKAVGLHYFSKGNGENSYGGNGDMTYARLGFKGETQINSDLTGYGQWEYNFQGNNSEGADAQTGNKTRLAFAGLKYADVGSFDYGRNYGVVYDALGYTDMLPEFGGDTAYSDDFFVGRVGGVATYRNSNFFGLVDGLNFAVQYLGKNERDTARRSNGDGVGGSISYEYEGFGIVGAYGAADRTNLQEAQPLGNGKKAEQWATGLKYDANNIYLAANYGETRNATPITNKFTNTSGFANKTQDVLLVAQYQFDFGLRPSIAYTKSKAKDVEGIGDVDLVNYFEVGATYYFNKNMSTYVDYIINQIDSDNKLGVGSDDTVAVGIVYQF
notes: source: E. coli BL21[DE3], inclusion bodies, purified (gel filtration in 6 M Gdn-HCl); urea-denatured and diluted into the assay
For the molecule B3, the binding result in assay [2] and in assay [4] was “binds” throughout.

B4: OmpX I102C labelled with MTS-diazirine (natural protein, E. coli)
chain: MATSTVTGGYAQSDAQGQMNKMGGFNLKYRYEEDNSPLGVIGSFTYTEKSRTASSGDYNKNQYYGITAGPAYRINDWASCYGVVGVGYGKFQTTEYPTYKHDTSDYGFSYGAGLQFNPMENVALDFSYEQSRIRSVDVGTWIAGVGYRF
modifications: MTS-diazirine on Cys 102
notes: N-terminal Met residue of the OmpX construct (named in words); source: purified, conjugated with MTS-diazirine in 6 M guanidine-HCl
B4: the binding result in assay [5] is recorded as “binds”.

B5: OmpX M41C labelled with MTS-diazirine (natural protein, E. coli)
chain: MATSTVTGGYAQSDAQGQCNKMGGFNLKYRYEEDNSPLGVIGSFTYTEKSRTASSGDYNKNQYYGITAGPAYRINDWASIYGVVGVGYGKFQTTEYPTYKHDTSDYGFSYGAGLQFNPMENVALDFSYEQSRIRSVDVGTWIAGVGYRF
modifications: MTS-diazirine on Cys 41
notes: as for B4
Turning to B5, the binding result in assay [5] is “binds”.

B6: OmpX K122C labelled with MTS-diazirine (natural protein, E. coli)
chain: MATSTVTGGYAQSDAQGQMNKMGGFNLKYRYEEDNSPLGVIGSFTYTEKSRTASSGDYNKNQYYGITAGPAYRINDWASIYGVVGVGYGKFQTTEYPTYCHDTSDYGFSYGAGLQFNPMENVALDFSYEQSRIRSVDVGTWIAGVGYRF
modifications: MTS-diazirine on Cys 122
notes: as for B4
With B6, in assay [5], the binding result is recorded as “binds”.

B7: OmpX V167C labelled with MTS-diazirine (natural protein, E. coli)
chain: MATSTVTGGYAQSDAQGQMNKMGGFNLKYRYEEDNSPLGVIGSFTYTEKSRTASSGDYNKNQYYGITAGPAYRINDWASIYGVVGVGYGKFQTTEYPTYKHDTSDYGFSYGAGLQFNPMENVALDFSYEQSRIRSVDVGTWIAGCGYRF
modifications: MTS-diazirine on Cys 167
notes: as for B4
With B7, the binding result in assay [5] was “binds”.

B8: WEYIPNV peptide (peptide)
peptide: WEYIPNV
B8: the binding result in assay [6], in assay [7] and in assay [8] was “binds” throughout.
